Results reported in patent US20140087995A1 (published 2014).
Numbered stars: 1 amine (or outer) side, 2 acyl side, 3 side chain; on linkers, the order of the positions; unused ones are H or OH. Bridge positions count the residues as written; N and C are the ends. Side chains are listed from the residue outwards. Ends that are not written are not given here. * marks the point of attachment. C20 diacid = O=C(O)CCCCCCCCCCCCCCCCCCC(=O)*; γGlu = O=C(O)[C@H](CCC(=O)[*:2])N[*:1]; AEEA = NCCOCCOCC(=O)O

T1: human calcitonin receptor (human, UniProt P30988 25-474)
T1 construct: whole, on cells; Membranes of a BHK tk'ts 13 cell line stably transfected with the human calcitonin receptor; also called hCTR; hCT
T1 sequence (looked up): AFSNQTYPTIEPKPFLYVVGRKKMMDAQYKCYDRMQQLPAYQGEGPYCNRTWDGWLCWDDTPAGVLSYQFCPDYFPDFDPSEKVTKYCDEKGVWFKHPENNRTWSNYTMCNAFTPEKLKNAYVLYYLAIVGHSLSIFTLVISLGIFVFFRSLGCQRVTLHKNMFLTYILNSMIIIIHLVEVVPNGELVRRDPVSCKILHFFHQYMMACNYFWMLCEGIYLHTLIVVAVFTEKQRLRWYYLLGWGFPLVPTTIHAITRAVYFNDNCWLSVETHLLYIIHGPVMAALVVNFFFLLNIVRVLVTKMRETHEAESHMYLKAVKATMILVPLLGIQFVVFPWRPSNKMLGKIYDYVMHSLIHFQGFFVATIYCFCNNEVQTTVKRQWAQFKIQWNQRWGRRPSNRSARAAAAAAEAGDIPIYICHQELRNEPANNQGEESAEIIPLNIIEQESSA

T2: rat calcitonin receptor (rat, UniProt P32214 25-516)
T2 construct: whole, on cells; Membranes of BHK tk'ts 13 cells transiently transfected with the rat calcitonin receptor; also called rCTR; rat calcitonin (a) receptor
T2 sequence (looked up): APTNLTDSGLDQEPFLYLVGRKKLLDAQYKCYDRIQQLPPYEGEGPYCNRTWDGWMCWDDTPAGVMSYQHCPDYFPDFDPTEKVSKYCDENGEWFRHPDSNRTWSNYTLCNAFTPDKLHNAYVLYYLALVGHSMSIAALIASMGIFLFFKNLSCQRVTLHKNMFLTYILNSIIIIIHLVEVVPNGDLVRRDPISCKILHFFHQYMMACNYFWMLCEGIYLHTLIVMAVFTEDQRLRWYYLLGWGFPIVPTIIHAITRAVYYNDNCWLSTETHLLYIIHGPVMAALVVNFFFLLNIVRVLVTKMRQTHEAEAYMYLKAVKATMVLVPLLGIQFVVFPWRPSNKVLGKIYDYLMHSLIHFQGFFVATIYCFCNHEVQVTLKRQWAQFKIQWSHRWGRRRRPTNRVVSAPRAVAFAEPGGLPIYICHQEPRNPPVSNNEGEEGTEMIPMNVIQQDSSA

T3: rat amylin receptor (rat calcitonin receptor + rat RAMP 3) (rat, UniProt P32214 25-516; Q9JJ73 23-147)
T3 construct: whole, on cells; Membranes of BHK tk'ts 13 cells transiently transfected with the rat calcitonin receptor and rat RAMP 3; also called rAmylin-R; rat amylin 3(a) receptor
T3 sequence (looked up) 1: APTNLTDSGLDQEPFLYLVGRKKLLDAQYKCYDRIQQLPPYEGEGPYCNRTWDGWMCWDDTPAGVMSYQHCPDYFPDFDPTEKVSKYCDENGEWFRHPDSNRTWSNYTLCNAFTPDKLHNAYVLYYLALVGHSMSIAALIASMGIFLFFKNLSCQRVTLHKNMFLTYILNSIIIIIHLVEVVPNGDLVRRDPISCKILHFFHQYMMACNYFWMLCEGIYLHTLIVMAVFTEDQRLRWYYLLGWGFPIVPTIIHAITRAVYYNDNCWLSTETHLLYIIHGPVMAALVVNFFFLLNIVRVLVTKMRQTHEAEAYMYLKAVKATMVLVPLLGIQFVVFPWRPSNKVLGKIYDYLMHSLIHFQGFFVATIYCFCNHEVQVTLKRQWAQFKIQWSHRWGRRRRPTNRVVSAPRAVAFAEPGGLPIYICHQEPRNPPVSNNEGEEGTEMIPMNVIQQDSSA
T3 sequence (looked up) 2: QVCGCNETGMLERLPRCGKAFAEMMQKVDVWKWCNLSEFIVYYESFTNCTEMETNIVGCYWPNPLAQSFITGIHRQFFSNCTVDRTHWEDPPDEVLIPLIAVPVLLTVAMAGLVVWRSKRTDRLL

T4: rat calcitonin receptor (rat, UniProt P32214 25-516)
T4 construct: whole, on cells; Membranes prepared from transiently transfected BHK tk'ts 13 cells; also called rCTR; rat calcitonin (a) receptor
T4 sequence (looked up): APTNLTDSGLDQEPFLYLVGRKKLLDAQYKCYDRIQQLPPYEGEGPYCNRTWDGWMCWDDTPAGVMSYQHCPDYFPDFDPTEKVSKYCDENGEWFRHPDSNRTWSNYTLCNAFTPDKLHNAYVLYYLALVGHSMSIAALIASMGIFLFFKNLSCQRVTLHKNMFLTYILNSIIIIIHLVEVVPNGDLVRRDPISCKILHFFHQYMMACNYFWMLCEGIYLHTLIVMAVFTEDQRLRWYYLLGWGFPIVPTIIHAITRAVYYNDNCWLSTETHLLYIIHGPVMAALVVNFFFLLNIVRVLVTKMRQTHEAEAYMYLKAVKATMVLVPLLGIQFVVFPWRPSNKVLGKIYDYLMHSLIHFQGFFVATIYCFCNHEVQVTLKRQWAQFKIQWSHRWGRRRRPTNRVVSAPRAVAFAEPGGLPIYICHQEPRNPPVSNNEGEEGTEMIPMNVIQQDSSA


What was measured:
[1] = biological target: T1, human calcitonin receptor; assay: IC50 at hCTR divided by IC50 at hAmylin-R (reference)
Summary of the method: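 Membranes (35 ng/μL final) + SPA beads, 50 mM Hepes pH 7.4 buffer with 1 mM CaCl2, 5 mM MgCl₂, 0.1% OA, 0.02% Tween20; 120 min, 25° C, shaking; centrifuged, counted; IC₅₀ by one-site binding competition.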

rat calcitonin receptor [2] = biological target: T2, rat calcitonin receptor; assay: IC50 at rCTR divided by IC50 at rAmylin-R (reference)
rat calcitonin receptor [3] = biological target: T2, rat calcitonin receptor; assay: SPA competition vs 125I-calcitonin, membranes with rat CTR (Assay VIII)
[4] = biological target: T3, rat amylin receptor (rat calcitonin …); assay: SPA competition vs 125I-rat amylin, membranes with rat CTR + rat RAMP3 (Assay VI)
rat calcitonin receptor [5] = biological target: T4, rat calcitonin receptor; assay: SPA competition vs 125I-calcitonin, membranes (Assay VIII)

Binder	Ratio hCT/hAmylin binding [1]	Ratio rCT/rAmylin binding (rat calcitonin receptor [2])	IC50 (rat calcitonin receptor [3])	IC50 [4]	IC50 (rat calcitonin receptor [5])
K([γGlu-C20 diacid])CNTATCATQRLANFLRHSSPNFGAIPSSTNVGSNTY-NH2 (disulfide 2-7; N-terminus assumed; SMILES CC[C@H](C)[C@H](NC(=O)[C@H](C)NC(=O)CNC(=O)[C@H](Cc1ccccc1)NC(=O)[C@H](CC(N)=O)NC(=O)[C@@H]1CCCN1C(=O)[C@H](CO)NC(=O)[C@H](CO)NC(=O)[C@H](Cc1c[nH]cn1)NC(=O)[C@H](CCCNC(=N)N)NC(=O)[C@H](CC(C)C)NC(=O)[C@H](Cc1ccccc1)NC(=O)[C@H](CC(N)=O)NC(=O)[C@H](C)NC(=O)[C@H](CC(C)C)NC(=O)[C@H](CCCNC(=N)N)NC(=O)[C@H](CCC(N)=O)NC(=O)[C@@H](NC(=O)[C@H](C)NC(=O)[C@@H]1CSSC[C@H](NC(=O)[C@@H](N)CCCCNC(=O)CC[C@H](NC(=O)CCCCCCCCCCCCCCCCCCC(=O)O)C(=O)O)C(=O)N[C@@H](CC(N)=O)C(=O)N[C@@H]([C@@H](C)O)C(=O)N[C@@H](C)C(=O)N[C@@H]([C@@H](C)O)C(=O)N1)[C@@H](C)O)C(=O)N1CCC[C@H]1C(=O)N[C@@H](CO)C(=O)N[C@@H](CO)C(=O)N[C@H](C(=O)N[C@@H](CC(N)=O)C(=O)N[C@H](C(=O)NCC(=O)N[C@@H](CO)C(=O)N[C@@H](CC(N)=O)C(=O)N[C@H](C(=O)N[C@@H](Cc1ccc(O)cc1)C(N)=O)[C@@H](C)O)C(C)C)[C@@H](C)O, modifications are with respect to human amylin; also called compound 48) [N^ε1-[(4S)-4-carboxy-4-(19-carboxynonadecanoylamino)butanoyl]-[Arg17,Pro21,Pro27]-h-amylin]	69.7	201	112 nM	0.558 nM	–
KCNTATCATQRLADFLRHSSPNFGAIPSSTNVGSRTY-NH2 (disulfide 2-7, Not acylated) [[Asp14,Arg17,Pro21,Pro27,Arg35]-h-amylin]	–	–	–	–	30.9 nM
{C20 diacid-γGlu}-GRCNTATCATQRLANFLRHSSPNFGAIPSSTNVGSHTY-NH2 (disulfide 3-8; SMILES CC[C@H](C)[C@H](NC(=O)[C@H](C)NC(=O)CNC(=O)[C@H](Cc1ccccc1)NC(=O)[C@H](CC(N)=O)NC(=O)[C@@H]1CCCN1C(=O)[C@H](CO)NC(=O)[C@H](CO)NC(=O)[C@H](Cc1c[nH]cn1)NC(=O)[C@H](CCCNC(=N)N)NC(=O)[C@H](CC(C)C)NC(=O)[C@H](Cc1ccccc1)NC(=O)[C@H](CC(N)=O)NC(=O)[C@H](C)NC(=O)[C@H](CC(C)C)NC(=O)[C@H](CCCNC(=N)N)NC(=O)[C@H](CCC(N)=O)NC(=O)[C@@H](NC(=O)[C@H](C)NC(=O)[C@@H]1CSSC[C@H](NC(=O)[C@H](CCCNC(=N)N)NC(=O)CNC(=O)CC[C@H](NC(=O)CCCCCCCCCCCCCCCCCCC(=O)O)C(=O)O)C(=O)N[C@@H](CC(N)=O)C(=O)N[C@@H]([C@@H](C)O)C(=O)N[C@@H](C)C(=O)N[C@@H]([C@@H](C)O)C(=O)N1)[C@@H](C)O)C(=O)N1CCC[C@H]1C(=O)N[C@@H](CO)C(=O)N[C@@H](CO)C(=O)N[C@H](C(=O)N[C@@H](CC(N)=O)C(=O)N[C@H](C(=O)NCC(=O)N[C@@H](CO)C(=O)N[C@@H](Cc1c[nH]cn1)C(=O)N[C@H](C(=O)N[C@@H](Cc1ccc(O)cc1)C(N)=O)[C@@H](C)O)C(C)C)[C@@H](C)O, modifications are with respect to human amylin; also called compound 47)	44.9	84.3	17.1 nM	0.203 nM	–
{C20 diacid-γGlu}-GRCNTATCATQRLANFLRHSSPNFGAIPSSTNVGSNTY-NH2 (disulfide 3-8; SMILES CC[C@H](C)[C@H](NC(=O)[C@H](C)NC(=O)CNC(=O)[C@H](Cc1ccccc1)NC(=O)[C@H](CC(N)=O)NC(=O)[C@@H]1CCCN1C(=O)[C@H](CO)NC(=O)[C@H](CO)NC(=O)[C@H](Cc1c[nH]cn1)NC(=O)[C@H](CCCNC(=N)N)NC(=O)[C@H](CC(C)C)NC(=O)[C@H](Cc1ccccc1)NC(=O)[C@H](CC(N)=O)NC(=O)[C@H](C)NC(=O)[C@H](CC(C)C)NC(=O)[C@H](CCCNC(=N)N)NC(=O)[C@H](CCC(N)=O)NC(=O)[C@@H](NC(=O)[C@H](C)NC(=O)[C@@H]1CSSC[C@H](NC(=O)[C@H](CCCNC(=N)N)NC(=O)CNC(=O)CC[C@H](NC(=O)CCCCCCCCCCCCCCCCCCC(=O)O)C(=O)O)C(=O)N[C@@H](CC(N)=O)C(=O)N[C@@H]([C@@H](C)O)C(=O)N[C@@H](C)C(=O)N[C@@H]([C@@H](C)O)C(=O)N1)[C@@H](C)O)C(=O)N1CCC[C@H]1C(=O)N[C@@H](CO)C(=O)N[C@@H](CO)C(=O)N[C@H](C(=O)N[C@@H](CC(N)=O)C(=O)N[C@H](C(=O)NCC(=O)N[C@@H](CO)C(=O)N[C@@H](CC(N)=O)C(=O)N[C@H](C(=O)N[C@@H](Cc1ccc(O)cc1)C(N)=O)[C@@H](C)O)C(C)C)[C@@H](C)O, modifications are with respect to human amylin; also called compound 46) [N^-1-[(4S)-4-carboxy-4-(19-carboxynonadecanoylamino)butanoyl]-Gly[Arg1,Arg17,Pro21,Pro27]-h-amylin]	48.9	142	46.8 nM	0.33 nM	–
K([AEEA-γGlu-C20 diacid])RCNTATCATQRLANFLRHSSPNFGAIPSSTNVGSHTY-NH2 (disulfide 3-8; N-terminus assumed; SMILES CC[C@H](C)[C@H](NC(=O)[C@H](C)NC(=O)CNC(=O)[C@H](Cc1ccccc1)NC(=O)[C@H](CC(N)=O)NC(=O)[C@@H]1CCCN1C(=O)[C@H](CO)NC(=O)[C@H](CO)NC(=O)[C@H](Cc1c[nH]cn1)NC(=O)[C@H](CCCNC(=N)N)NC(=O)[C@H](CC(C)C)NC(=O)[C@H](Cc1ccccc1)NC(=O)[C@H](CC(N)=O)NC(=O)[C@H](C)NC(=O)[C@H](CC(C)C)NC(=O)[C@H](CCCNC(=N)N)NC(=O)[C@H](CCC(N)=O)NC(=O)[C@@H](NC(=O)[C@H](C)NC(=O)[C@@H]1CSSC[C@H](NC(=O)[C@H](CCCNC(=N)N)NC(=O)[C@@H](N)CCCCNC(=O)COCCOCCNC(=O)CC[C@H](NC(=O)CCCCCCCCCCCCCCCCCCC(=O)O)C(=O)O)C(=O)N[C@@H](CC(N)=O)C(=O)N[C@@H]([C@@H](C)O)C(=O)N[C@@H](C)C(=O)N[C@@H]([C@@H](C)O)C(=O)N1)[C@@H](C)O)C(=O)N1CCC[C@H]1C(=O)N[C@@H](CO)C(=O)N[C@@H](CO)C(=O)N[C@H](C(=O)N[C@@H](CC(N)=O)C(=O)N[C@H](C(=O)NCC(=O)N[C@@H](CO)C(=O)N[C@@H](Cc1c[nH]cn1)C(=O)N[C@H](C(=O)N[C@@H](Cc1ccc(O)cc1)C(N)=O)[C@@H](C)O)C(C)C)[C@@H](C)O, modifications are with respect to human amylin; also called compound 45)	26.8	67.1	41.8 nM	0.623 nM	–
